Experimental data published in patent US20240083945A1 (Bicycle, published 2024).

Molecular target: T1, COVID-19 nucleocapsid protein (N-protein) (severe acute respiratory syndrome …, UniProt P0DTC9 1-419)
T1 construct: also called nucleocapsid protein (N-protein) of severe acute respiratory syndrome coronavirus 2 (SARS-CoV-2)
Test: bio-layer interferometry (BLI)

| Binder | Kd [µM] |
| --- | --- |
| ACSEEYMFCNNRYVVCA (Ci, Cii and Ciii cysteines covalently bound to TATA scaffold) [BCY16577] | 0.934 |
| ACTNLEWAYCYIHNECA (Ci, Cii and Ciii cysteines covalently bound to TATA scaffold) [BCY19571] | 0.958 |
| ACTNLEWADCYINHNCA (Ci, Cii and Ciii cysteines covalently bound to TATA scaffold) [BCY19572] | 1 |
| ACTNLEWANCYINHNCA (Ci, Cii and Ciii cysteines covalently bound to TATA scaffold) [BCY19573] | 1.19 |
| ACTNLQWADCYINHVCA (Ci, Cii and Ciii cysteines covalently bound to TATA scaffold) [BCY19458] | 2.29 |
| ACENFQLGCRITYKCA (Ci, Cii and Ciii cysteines covalently bound to TATA scaffold) [BCY17643] | 4.23 |
| ACLAPGQRCQWGRTCA (Ci, Cii and Ciii cysteines covalently bound to TATA scaffold) [BCY17645] | 0.227 |
| ACDDWMIGCRITYKCA (Ci, Cii and Ciii cysteines covalently bound to TATA scaffold) [BCY17642] | 3.95 |
| ACTNLDWAYCYIHNQCA (Ci, Cii and Ciii cysteines covalently bound to TATA scaffold) [BCY19570] | 0.978 |
| ACLEAGQRCNWTRVCA (Ci, Cii and Ciii cysteines covalently bound to TATA scaffold) [BCY17649] | 0.596 |
| ACLEAGQRCQWGRTCA (Ci, Cii and Ciii cysteines covalently bound to TATA scaffold) [BCY17644] | 0.675 |
| ACLEAGQRCQWSRTCA (Ci, Cii and Ciii cysteines covalently bound to TATA scaffold) [BCY17651] | 0.686 |
| ACRVTLDACWDTPCA (Ci, Cii and Ciii cysteines covalently bound to TATA scaffold) [BCY16579] | 0.759 |
| ACAWDEYYQVCLPCA (Ci, Cii and Ciii cysteines covalently bound to TATA scaffold) [BCY16580] | 6.68 |
| ACLPLGARCNWTRVCA (Ci, Cii and Ciii cysteines covalently bound to TATA scaffold) [BCY17646] | 0.198 |
| ACLPLGARCQWQRECA (Ci, Cii and Ciii cysteines covalently bound to TATA scaffold) [BCY17648] | 1.86 |
| ACLAPGQRCQWQRECA (Ci, Cii and Ciii cysteines covalently bound to TATA scaffold) [BCY17653] | 0.799 |
| ACTNLQWAMCYITGNCA (Ci, Cii and Ciii cysteines covalently bound to TATA scaffold) [BCY18172] | 2.74 |
| ACLAPGQRCNWTRVCA (Ci, Cii and Ciii cysteines covalently bound to TATA scaffold) [BCY17652] | 0.142 |
| ACLEAGQRCQWQRECA (Ci, Cii and Ciii cysteines covalently bound to TATA scaffold) [BCY17650] | 1.99 |
